Data on 2 molecules can be found in publication PMC4186855, “A Soybean C2H2-Type Zinc Finger Gene GmZF1 Enhanced Cold Tolerance in Transgenic Arabidopsis”.

This series has as its target T1, GmZF1 (GST fusion) (Glycine max (soybean), UniProt Q4FH86 1-172).
T1 sequence: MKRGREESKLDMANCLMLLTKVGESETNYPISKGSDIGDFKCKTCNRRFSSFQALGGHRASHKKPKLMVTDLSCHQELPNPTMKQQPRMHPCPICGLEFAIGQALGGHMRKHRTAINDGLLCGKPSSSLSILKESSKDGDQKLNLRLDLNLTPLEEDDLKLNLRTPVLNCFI
The series can be described thus: EMSA; 20 µL binding buffer with 32P-labelled probe, glycerine and 0.2 µg purified protein; 6% polyacrylamide gel in TBE (printed as 0.53, probably 0.5x); salt, pH and temperature not stated. Conditions: protein: recombinant; tags: GST (pGEX-4T-1); label: 32P.

B1: E2 (mutant EP1S, base substitution) (dsDNA)
DNA 1: TTCAGAGTGTCACTTCAGAGTGTCACTTCAGAGTGTCACTTCAGAGTGTCAC
DNA 2: GTGACACTCTGAAGTGACACTCTGAAGTGACACTCTGAAGTGACACTCTGAA
B1: the binding result is reported as “binds”.

B2: E1 (wild-type EP1S, 4 copies) (dsDNA)
DNA 1: TTGACAGTGTCACTTGACAGTGTCACTTGACAGTGTCACTTGACAGTGTCAC
DNA 2: GTGACACTGTCAAGTGACACTGTCAAGTGACACTGTCAAGTGACACTGTCAA
B2: the binding result is reported as “binds”.
